The source of these data is paper PMC2800207.

Holding throughout (assay): fluorescence anisotropy
A general note: Polarisation of emitted light reports the rotation of a fluorescent probe.

In data set [1] the target is NusB (Escherichia coli, UniProt P0A780 1-139).
Data set [2] concerns the target NusB D118N (NusB101) (Escherichia coli, UniProt P0A780 1-139, D118N).
Data set [3] addresses NusB K2E (Escherichia coli, UniProt P0A780 1-139, K2E).
The target of data set [4] is NusB D118K (Escherichia coli, UniProt P0A780 1-139, D118K).
Data set [5] concerns the target NusB D118R (Escherichia coli, UniProt P0A780 1-139, D118R).
Data set [6] has as its target NusB D118A (Escherichia coli, UniProt P0A780 1-139, D118A).

B1: rrnG BoxA (ssRNA)
RNA: UGCUCUUUA
For B1, the Kd (in general, the free concentration of one partner at which half of the binding sites on the other are occupied at equilibrium, for simple one-to-one binding) in data set [1] came out at 200 ± 10 nM; in data set [2], 50 ± 15 nM.

B2: rrnG BoxA-spacer (ssRNA)
RNA: CACUGCUCUUUAACAAUUA
As to B2, the Kd is 130 ± 20 nM in data set [1], 3.6 µM in data set [3] and 24 ± 4 nM in data set [2].

B3: nutR BoxA (ssRNA)
RNA: CGCUCUUA
For the molecule B3, the results for the dissociation constant Kd in data set [1] and in data set [2] were 1600 ± 100 nM and 290 ± 15 nM, respectively.

B4: nutL spacer (ssRNA)
RNA: AAAAUUAA
Consider B4, for which the binding result in data set [1] and in data set [2] was “no binding” throughout.

B5: nutL BoxA-spacer (ssRNA)
RNA: CGCUCUUAAAAAUUAA
As to B5, the dissociation constant Kd in data set [1] was found to be 2200 ± 800 nM; in data set [3], 5.1 µM.

B6: nutR spacer (ssRNA)
RNA: CACAUUCCA
On to B6, for which the binding result in data set [1] and in data set [2] was “no binding” throughout.

B7: nutR BoxA-spacer (ssRNA)
RNA: CGCUCUUACACAUUCCA
Regarding B7, the binding result in data set [4], in data set [5] and in data set [6] was “no binding” each time.

B8: nutR BoxA69-spacer (boxA transversion) (ssRNA)
RNA: AUAGCGGCCACAUUCCA
As to B8, the binding result in data set [1] and in data set [2] was “no binding” throughout.

B9: nutR BoxA16-spacer (C38A) (ssRNA)
RNA: CGCUAUUACACAUUCCA
The molecule B9 displayed an equilibrium dissociation constant (Kd) in data set [1] of 5100 ± 1400 nM.

B10: nutR BoxA(U39G)-spacer (ssRNA)
RNA: CGCUCGUACACAUUCCA
B10 gave a Kd in data set [1] of 1600 ± 800 nM.
